In article PMC12054373:

What was measured:
[1] = molecular target: T1, bS21 (Halalkalibacterium halodurans C-125?) (UniProt Q9KD65); experiment: footprinting (in-line probing); settings: Filter binding: 20 mM Tris-HCl pH 7.5, 150 mM NaCl, 10 mM MgCl2, 1 mM TCEP, 5% glycerol, 0.001% SDS, ~2.5 nM RNA, 20°C, 15 min; in-line probing buffer not in …
T1 sequence: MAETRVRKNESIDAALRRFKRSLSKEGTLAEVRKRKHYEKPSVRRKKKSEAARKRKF

[2] = molecular target: T1, bS21 (Halalkalibacterium halodurans C-125?); experiment: filter binding; settings: Filter binding: 20 mM Tris-HCl pH 7.5, 150 mM NaCl, 10 mM MgCl2, 1 mM TCEP, 5% glycerol, 0.001% SDS, ~2.5 nM RNA, 20°C, 15 min; in-line probing buffer not in …

Sequence | binding [1] | binding [2]
GGAUCGAUGAAGCUCCUUGUGAUGGCUUGAGGCGCCCAGCCUUGGGUCAUUGCUGGGAGAAAAGGUAGUAGGGCGAUCCACAAAGGCAUGUGGGCGAUGACCCUCCUACUG [OLE83-191 WT] | binds | binds
GGGGCACAUCGAUGAAGCUCCUUGUGAUGGCUUGAGGCGCCCAGCCUUGGGUCAUUGCUGGGAGAAAAGGUAGUAGGGCGAUCCACAAAGGCAUGUGGGCGAUGACCCUCCUACUGUGGAGGCCUUUUUCUCUGCUGCUUAUGUAUGGACAUAGGGCAAGAGCAAAGGGUAUGAACCUGCGAAGGCAAGCUAGGGAGCUUGUCAGCAGCGUAGCC [OLE78-290] | binds | binds
GGCAUUUAAAGAGGAUUACAGUGUGGACUAAGUGGUAAUCCAGUCUGGCGUUUGGUGACAGCGCCAAGUUCAACAUAAAGGGAAACCGCCAGCGCGGCGACGCACUGGUGUUGAAUUGGGAAAUCCUACUGGACCUAAGCCACAGAGUUUACUCUUUAAAUG [OLE449-608] |  | binds more weakly
